Laboratory results taken from the supplement of paper PMC9170038.

System: MS2 coat protein
Test: apparent KD of MS2 coat protein; higher = weaker reporter binding
Conditions: Eterna round: R107
Summary of the method: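 Designed RNA switches were transcribed on-chip from Illumina sequencing clusters. They were then titrated with SNAP-549-labelled MS2 coat protein (twofold steps, 0.7 or 1.5 nM to 3 µM; 0.8–1.5 h to 10–20 min per step) in 100 mM Tris-HCl pH 7.5, 80 mM KCl, 4 mM MgCl2, without or with constant ligand. Apparent KD is the per-design median of normalised cluster binding-curve fits.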

[1] = input ligand: theophylline 20 uM
[2] = input ligand: tryptophan 2.4 mM
[3] = input ligand: theophylline 2 mM

Sequence	apparent KD of MS2 coat protein (input ligand: arginine 13.2 mM)	apparent KD of MS2 coat protein [1]	apparent KD of MS2 coat protein [2]	apparent KD of MS2 coat protein (input ligand: none)	apparent KD of MS2 coat protein [3]
AGCACAUGAGGAUCACCCAUGUGAGGUGAUACCAGUGAGAAGAAGCACCCUUGGCAGCACUUGGGUACAUGAGGAUCACCCAUGU [Exclusion Theophylline A GF9]	0.0474 µM	0.0778 µM	0.0547 µM	–	–
UGAUGGUACGGAAGGAGCGUGUAAGAACAAGAACAUGAGGAUCACCCAUGUAUUAAUUUAACACAGGUAGGUCGCCGUGUUAUUG [11.H]	0.0319 µM	0.0358 µM	0.016 µM	0.0292 µM	0.0547 µM
AUCGUACCUGAUGAUACCAGCAUGUGAUCAUAACAUGAGGAUCACCCAUGUAAUCAGUGAUGCCCUUGGCAGCAUGAUCGGUACA [Same State - Theophylline B (Freestyle 13)]	0.0455 µM	0.0796 µM	0.0567 µM	–	–
CAUGAGAGAUUGUUUUGUGACUCUAACGAUACCAGAGUAGGACUUCUCCCUUGGCAGCGUGUGACAUGAGGAUCACCCAUGUCCA [theeternabot_exclusion_MS2_Theo_A_5]	0.0118 µM	0.0129 µM	0.0113 µM	–	–
GUUGAGACCUCGGCCGCCACUCGCCAUGAGGAUCUCCCAUGUAACAUGAGGAUCACCCAUGUACUGAGGACCGGGAGGUCCUUGU [Same State Tryptophan B GF 16]	0.012 µM	0.0185 µM	–	–	0.0155 µM
AAUAACAUGAGGAUCACCCAUGUAAAAGAUACCAGGGUGAUGAUCCUCCCUUGGCAGCUUACAGCUGAUCAAUAAGAUCGGCUGA [TheoAS #Tail #MS2BeforeAptamer #BothOrNeither]	0.0875 µM	0.256 µM	0.184 µM	–	–
AAAAUCCUACCUGAGGAUCACCCAGGUGAAGGAGCGCCCGAAAGGGCAGGUAGGUCGCACCUGAGGAUCACCCUGGUACCUAAAA [ArgAX 27 #DoubleMs2 #OpenEnded #AlternativeMS2]	0.0862 µM	0.0858 µM	0.0631 µM	0.061 µM	0.104 µM
AAUUAAAACUGAAGGAGCGUCGUGCGUGGGUGCGUCCCACAUGAGGAUCACCCAUGUGGUUGACAGGUAGGUCGCAGAAUAAUUU [Exclusion - Arginine B]	0.0669 µM	0.0955 µM	0.0366 µM	0.0497 µM	0.155 µM
AGUAACAUGAGGAUCACCCAUGUAUGAGAAGGAGCGUGUUUUAACACAGGUAGGUCGCUCAAUAUUAAUUUAUUAGAUACAUUUA [JR_SSArginiA_Sub006]	0.0189 µM	0.0451 µM	0.0343 µM	0.027 µM	0.0368 µM
AAGACGGUCGGAAGGAGCGGUACAUGAGGAUCACCCAUGUACUUCUGGGCAUCCGUAGUGUGCCAGGUAGGUCGCCGAUUGCGGG [XArg-B12]	0.0327 µM	0.0363 µM	0.0228 µM	0.0224 µM	0.0249 µM
GGUGGCGUGACGGAUACCAGCCACCGCGGCAACGCAACAUGAGGAUCACCCAUGUUGGGUGGCCCUUGGCAGCUGUCGUGCGGCG [#1 Same State - Theophylline B Attempt #23 (HarryS)]	0.0474 µM	0.0793 µM	0.0781 µM	0.0862 µM	0.0275 µM
AACAUGAGGAUCACCCAUGUGUCCUCGAAACGAGGACCGGUACGGCCGCCACUCGAAAAGGUGUUGACGAAAAGUCAGCACCAAA [Mat - Exclusion - Trytophan A - D16]	0.129 µM	0.451 µM	0.82 µM	0.264 µM	0.451 µM
CAUAUAUAAGCGGCCGCCACUUACUCAUGAGGUAACAACAUGAGGAUCACCCAUGUUUGAGGAUCAAGGACCGGGCUUAUAUAUG [AstrosSSTryB#5]	0.027 µM	0.0273 µM	–	–	0.0285 µM
UUUAGUAUCUUAGAUACCAGUUUUGGGUGCUGAACGUCUCACAUGAGGAUCACCCAUGUAAACCCUUGGCAGCUACAUACGUAAA [theeternabot_exclusion_MS2_Theo_B_41]	0.0357 µM	0.0589 µM	0.0519 µM	–	–
AGUAUUGGAAACAGUACUAGUGAUCCGGUCCGAGGACCGGUACGGCCGCCACUCGAUUUAAAUAAACAUGAGGAUCACCCAUGUA [Ex Tryptophan A 14]	0.0158 µM	0.0172 µM	–	–	0.0165 µM
UAAAUACAUGAGGAUCACCCAUGUUUGGAUACCAGAUAUGACAUUAUCCCUUGGCAGCCAUUCGUUCCAAAUGCUAUUGUGAAGG [theeternabot_sameState_MS2_Theo_A_26]	0.0206 µM	0.0308 µM	0.022 µM	–	–
CCUCAAUAGACGGCCGCCACUGAAUCAUGCGGAUACAUGAGGAUCACCCAUGUGGGUGUGGUACGCAGGACCGGGUCAAGACCCG [#13 Same State - Tryptophan B]	0.278 µM	0.454 µM	0.149 µM	0.145 µM	1.86 µM
CUACAUUUGUAGAAACCGGUCACCAUUAUUCGAGGACCGGUACGGCCGCCACUCGUAUCAUGUGAUACAUGAGGAUCACCCAUGU [Tryptophan A 9]	0.0273 µM	0.0337 µM	–	–	0.0455 µM
UGUAUGUGAUCUGAUACCAGCUAAUAAGCUUGAGGAUCACCCAAGUGGAGCGGAAACGCAAGCCCUUGGCAGCAGAUCGCAUACU [Denovo 4 #StaticStem #AlternativeMS2]	0.0609 µM	0.0506 µM	0.0989 µM	0.0893 µM	0.0127 µM
AGUUGACGAAAGUCAGCAACAUGAUCCGAAGGAGCGGGCGAAAGCCCAGGUAGGUCGCGGACAUGAGGAUCACCCAUGUCUCCUU [MAT - Exclusion Arginine A - Mod of Eli - D12]	0.0378 µM	0.0788 µM	0.0707 µM	0.0734 µM	0.0926 µM
UAAUAAGUGCCGGUUCUCAGAUCCUCAUGUCGAGGACCGGUACGGCCGCCACUCGAAACAUGAGGAUCACCCAUGUAAUAAUAAU [#08 Exclusion Tryptophan A]	0.0478 µM	0.105 µM	–	–	0.0731 µM
GCAAUAACGAUUGAUACCAGCAUGUUAACAUGAGGAUCACCCAUGUUAAGGAUAACAUAAUGCCCUUGGCAGCAACGGAAAGCCG [Ac]	0.0168 µM	0.0229 µM	0.0185 µM	–	–
AUAACAUGAGGAUCACCCAUGUAAGCAGAUACCAGCUAGGAAACUAGCCCUUGGCAGCUGCAUAGUGAUCCAUAUAUCUGCUAAU [(M1)-(M2)-(T1)-(T2)-(M)'-(T)'_Design8]	0.0406 µM	0.0805 µM	0.0592 µM	–	–
CCGGCCAGGGCGGCCGCCACUGAACGUGGAAGAAAGAAAACAUGAGGAUCACCCAUGUAAAUCCUCAGGACCGGGCCAGGGCCGG	0.0423 µM	0.071 µM	0.0178 µM	0.0578 µM	0.067 µM
UCUUCGUUGGCGUCACAAUUCAUGCAAUGCCGAGGACCGGUACGGCCGCCACUCGGACUAAUACAUGAGGAUCACCCAUGUCGUG [theeternabot_exclusion_MS2_Trp_A_5]	0.0379 µM	0.111 µM	–	–	0.219 µM
CCGUCCCUCGGAAGGAGCGGCGCAAUGUAAGGGACCUUUUAUACAUGAGGAUCACCCAUGUGCCAGGUAGGUCGCCGAGAGCGUG [Erxeatge]	0.0795 µM	0.074 µM	0.14 µM	0.0772 µM	0.145 µM
